Results published in patent US20250043302A1, “MUTATED HYDROXYPHENYLPYRUVATE DIOXYGENASE POLYPEPTIDE, AND CODING GENE AND USE THEREOF” (BEIJING DABEINONG BIOTECHNOLOGY CO., LTD., priority 2021, published 2025).
Where a chain is given by its changes, count along the chain named. Numbers in names are those of the source.

B1: GmHPPDm-F372A-F383W-02: nucleotide sequence encoding Glycine max HPPD with F372A+F383W; vector DBN11749 (nucleic acid)
DNA: ATGCCAATGTACACACCATCGCTCTCCGCCCCTTCTTCCAACCATATTCAGCCATCCGTGACTCTGCCTCTCTACATCACAACCACCAAGTTGAACCTGAAGCAGCAGCACCATACGACTCCTATGCCTATACCCATGTGCAATGAGATCCAAGCACAGGCTCAGGCACAAGCTCAACCCGGATTCAAACTCGTGGGATTCAAGAACTTCGTCCGTACCAATCCAAAATCTGACCGCTTCCAGGTGAACAGATTCCACCACATAGAGTTTTGGTGTACTGATGCAACGAATGCTTCGAGGAGGTTTTCATGGGGCTTAGGCATGCCGATTGTAGCAAAGTCAGACCTTTCTACAGGGAACCAAATTCATGCAAGCTATCTGCTCCGCTCAGGTGATTTGTCTTTCTTGTTCTCAGCTCCATATTCTCCATCATTATCTGCTGGGTCATCAGCAGCATCTAGTGCGTCGATCCCTAGCTTTGATGCCGCCACCTGCCTCGCCTTCGCCGCCAAACATGGATTTGGTGTTCGCGCCATTGCTCTTGAGGTTGCCGATGCCGAGGCTGCTTTTAGCGCCTCCGTCGCCAAGGGAGCTGAGCCTGCGTCACCTCCTGTTCTTGTTGATGATCGAACTGGTTTTGCTGAAGTGCGTCTTTACGGCGACGTGGTGCTCAGATATGTTAGTTACAAGGATGCTGCTCCTCAAGCGCCGCACGCTGATCCTTCAAGATGGTTTCTTCCGGGGTTTGAGGCCGCTGCTAGTTCATCTTCCTTCCCGGAGTTGGATTACGGCATACGGCGGCTTGACCATGCTGTCGGCAATGTTCCTGAGCTTGCTCCGGCGGTACGGTACTTGAAAGGTTTCTCCGGGTTCCATGAATTTGCAGAGTTCACGGCGGAAGATGTTGGAACAAGTGAAAGCGGATTGAATTCTGTTGTTTTGGCCAACAACAGTGAAACTGTTCTGCTCCCCCTCAATGAACCAGTTTATGGCACAAAGCGCAAGAGCCAGATTGAAACATATCTCGAGCACAATGAAGGCGCCGGCGTCCAGCATCTTGCTTTGGTGACTCATGATATCTTCACAACACTTAGGGAGATGAGGAAGAGGAGTTTCCTCGGCGGGTTTGAATTCATGCCCAGTCCCCCGCCGACCTACTATGCAAATCTGCACAACAGGGCTGCAGATGTGCTGACTGTAGACCAGATCAAGCAATGTGAAGAACTTGGAATTTTAGTGGATAGAGACGACCAAGGTACACTACTTCAAATAGCCACCAAACCAGTCGGTGACAGACCAACAATTTGGATCGAGATTATACAAAGAATTGGATGCATGGTCGAGGATGAAGAAGGGAAGGTGTACCAGAAGGGAGCATGTGGTGGTTTTGGGAAAGGAAATTTTTCTGAGCTGTTTAAATCCATCGAGGAATATGAGAAAACCTTAGAAGCTAAAAGAACTGCATGA
modifications: GmHPPDm-F372A-F383W-02 Nucleotide Sequence
notes: vector DBN11749
B2: GmHPPDm-F372A-02: nucleotide sequence encoding Glycine max HPPD with F372A; vector DBN11747 (nucleic acid)
DNA: B1 DNA with G1307T, G1308C
modifications: GmHPPDm-F372A-02 Nucleotide Sequence
notes: vector DBN11747

Experiments:
Type in all cases: in vivo
[1] = system: Arabidopsis thaliana T1 plants; assay: Topramezone tolerance of transgenic Arabidopsis thaliana T1 plants (spray, bleached leaf area grade, damage score); details: 7 DAT, Table 4; for Classification and statistics of the grade of pesticide damage: Grade 0 / Classification and statistics of the grade of pesticide damage: Grade 1 / Classification and statistics of the grade of pesticide damage: Grade 2 / Classification and statistics of the grade of pesticide damage: Grade 3: number of plants; for Scores: pesticide damage score 0-100
Summary of the method: (§1)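 T1 transformants selected by glufosinate; 18-day-old plants, with empty-vector and wild-type controls, sprayed with topramezone (25–200 g ai/ha), isoxaflutole (35–280 g ai/ha) or mesotrione (52.5–420 g ai/ha), water as 0×. Bleached leaf area fraction scored at 7 DAT as grades 0–3.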

[2] = system: Arabidopsis thaliana T1 plants; assay: Isoxaflutole tolerance of transgenic Arabidopsis thaliana T1 plants (spray, bleached leaf area grade, damage score); design: Scores (pesticide damage): scale not given here; details: spray, Arabidopsis thaliana T1 plants; for Classification and statistics of the grade of pesticide damage: Grade 0 (number of plants) / Classification and statistics of the grade of pesticide damage: Grade 1 (number of plants) / Classification and statistics of the grade of pesticide damage: Grade 2 (number of plants) / Classification and statistics of the grade of pesticide damage: Grade 3 (number of plants): 16 plants
Summary of the method: as §1

[3] = system: Arabidopsis thaliana T1 plants; assay: Mesotrione tolerance of transgenic Arabidopsis thaliana T1 plants (spray, bleached leaf area grade, damage score); design: Scores: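 damage score 0-100 computed as Σ(N×S)/(T×M)×100 over grades 0-3 with higher meaning more damage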; details: Arabidopsis thaliana T1 plants; for Grade 0 (classification and statistics of the grade of pesticide damage; number of plants) / Grade 1 (classification and statistics of the grade of pesticide damage; number of plants) / Grade 2 (classification and statistics of the grade of pesticide damage; number of plants) / Grade 3 (classification and statistics of the grade of pesticide damage; number of plants): 16 plants
Summary of the method: as §1

[4] = isoxaflutole 35 g ai/ha (0.5x field concentration)
[5] = isoxaflutole 70 g ai/ha (1x field concentration)

| Molecule | Classification and statistics of the grade of pesticide damage: Grade 0 ([1]; topramezone 25 g ai/ha (1×)) | Classification and statistics of the grade of pesticide damage: Grade 1 ([1]; topramezone 25 g ai/ha (1×)) | Classification and statistics of the grade of pesticide damage: Grade 2 ([1]; topramezone 25 g ai/ha (1×)) | Classification and statistics of the grade of pesticide damage: Grade 3 ([1]; topramezone 25 g ai/ha (1×)) | Classification and statistics of the grade of pesticide damage: Grade 0 ([1]; topramezone 100 g ai/ha (4×)) | Classification and statistics of the grade of pesticide damage: Grade 1 ([1]; topramezone 100 g ai/ha (4×)) | Classification and statistics of the grade of pesticide damage: Grade 2 ([1]; topramezone 100 g ai/ha (4×)) | Classification and statistics of the grade of pesticide damage: Grade 3 ([1]; topramezone 100 g ai/ha (4×)) | Scores ([1]; topramezone 25 g ai/ha (1×)) | Scores ([1]; topramezone 100 g ai/ha (4×)) | Resistance evaluation ([1]; topramezone 25 g ai/ha (1×)) | Resistance evaluation ([1]; topramezone 100 g ai/ha (4×)) | Resistance evaluation [2, 4] | Scores (pesticide damage) [2, 4] | Classification and statistics of the grade of pesticide damage: Grade 0 (number of plants) [2, 4] | Classification and statistics of the grade of pesticide damage: Grade 1 (number of plants) [2, 4] | Classification and statistics of the grade of pesticide damage: Grade 2 (number of plants) [2, 4] | Classification and statistics of the grade of pesticide damage: Grade 3 (number of plants) [2, 4] | Resistance evaluation [2, 5] | Scores (pesticide damage) [2, 5] | also measured |
| --- | --- | --- | --- | --- | --- | --- | --- | --- | --- | --- | --- | --- | --- | --- | --- | --- | --- | --- | --- | --- | --- |
| B1 | 9 | 7 | 0 | 0 | 5 | 6 | 4 | 1 | 15 | 35 | highly | poorly | Highly | 15 | 9 | 7 | 0 | 0 | Poorly | 40 | Classification and statistics of the grade of pesticide damage: Grade 0 (number of plants) [2, 5]: 4; Classification and statistics of the grade of pesticide damage: Grade 1 (number of plants) [2, 5]: 6; Classification and statistics of the grade of pesticide damage: Grade 2 (number of plants) [2, 5]: 5; Classification and statistics of the grade of pesticide damage: Grade 3 (number of plants) [2, 5]: 1; Resistance evaluation ([3]; mesotrione 52.5 g ai/ha): Moderately; Scores ([3]; mesotrione 52.5 g ai/ha): 23; Grade 0 (classification and statistics of the grade of pesticide damage; number of plants) ([3]; mesotrione 52.5 g ai/ha): 6; Grade 1 (classification and statistics of the grade of pesticide damage; number of plants) ([3]; mesotrione 52.5 g ai/ha): 9; Grade 2 (classification and statistics of the grade of pesticide damage; number of plants) ([3]; mesotrione 52.5 g ai/ha): 1; Grade 3 (classification and statistics of the grade of pesticide damage; number of plants) ([3]; mesotrione 52.5 g ai/ha): 0; Resistance evaluation ([3]; mesotrione 105 g ai/ha): Poorly resistant; Scores ([3]; mesotrione 105 g ai/ha): 46; Grade 0 (classification and statistics of the grade of pesticide damage; number of plants) ([3]; mesotrione 105 g ai/ha): 2; Grade 1 (classification and statistics of the grade of pesticide damage; number of plants) ([3]; mesotrione 105 g ai/ha): 7; Grade 2 (classification and statistics of the grade of pesticide damage; number of plants) ([3]; mesotrione 105 g ai/ha): 6; Grade 3 (classification and statistics of the grade of pesticide damage; number of plants) ([3]; mesotrione 105 g ai/ha): 1 |
| B2 | 0 | 12 | 4 | 0 | 0 | 0 | 0 | 16 | 42 | 100 | poorly | non-resistant (non-resistant plants (scores 68-100)) | Poorly | 65 | 0 | 3 | 11 | 2 | Non-resistant | 100 | Classification and statistics of the grade of pesticide damage: Grade 0 (number of plants) [2, 5]: 0; Classification and statistics of the grade of pesticide damage: Grade 1 (number of plants) [2, 5]: 0; Classification and statistics of the grade of pesticide damage: Grade 2 (number of plants) [2, 5]: 0; Classification and statistics of the grade of pesticide damage: Grade 3 (number of plants) [2, 5]: 16; Resistance evaluation ([3]; mesotrione 52.5 g ai/ha): Poorly resistant; Scores ([3]; mesotrione 52.5 g ai/ha): 67; Grade 0 (classification and statistics of the grade of pesticide damage; number of plants) ([3]; mesotrione 52.5 g ai/ha): 0; Grade 1 (classification and statistics of the grade of pesticide damage; number of plants) ([3]; mesotrione 52.5 g ai/ha): 2; Grade 2 (classification and statistics of the grade of pesticide damage; number of plants) ([3]; mesotrione 52.5 g ai/ha): 12; Grade 3 (classification and statistics of the grade of pesticide damage; number of plants) ([3]; mesotrione 52.5 g ai/ha): 2; Resistance evaluation ([3]; mesotrione 105 g ai/ha): Non-resistant; Scores ([3]; mesotrione 105 g ai/ha): 100; Grade 0 (classification and statistics of the grade of pesticide damage; number of plants) ([3]; mesotrione 105 g ai/ha): 0; Grade 1 (classification and statistics of the grade of pesticide damage; number of plants) ([3]; mesotrione 105 g ai/ha): 0; Grade 2 (classification and statistics of the grade of pesticide damage; number of plants) ([3]; mesotrione 105 g ai/ha): 0; Grade 3 (classification and statistics of the grade of pesticide damage; number of plants) ([3]; mesotrione 105 g ai/ha): 16 |
